Source: patent US12416034B2, “Recombinant production of steviol glycosides” (EVOLVA SA, priority 2011, dated 2025)

Assays:
[1] = system: S. cerevisiae; experiment: Toxicity of intermediates: growth of S. cerevisiae CEN.PK; assay type: cell-based; details: growth of CEN.PK transformants
From the text: The effect on S. cerevisiae vitality of geranyl geranyl pyrophosphate (GGPP), ent-copalyl diphosphate (CDP) or ent-kaurene production was investigated by expression of Synechococcus sp GGPPS alone (GGPP production), the GGPPS and the 50 amino acid N-terminally truncated Zea mays CDPS (see Example 16) together (CDP production), or the GGPPS, truncated CDPS and the Arabidopsis thaliana kaurene synthase (KS5) together (ent kaurene production) in the laboratory S. cerevisiae strain CEN.PK background. Genes were expressed from 2μ plasmids with GPD promoters driving transcription of truncated CDPS and KS5, while transcription of the GGPPS was driven by the ADH1 promoter. The growth of S. cerevisiae CEN.PK transformed with various combinations of these plasmids (GGPPS alone; GGPPS+truncated CDPS; or GGPPS+truncated CDPS+KS5) or plasmids without gene insertions was observed. GGPP production, and especially CDP production, was toxic to S. cerevisiae when produced as end products.

[2] = RebD solubility in water; assay type: physicochemical; details: 30° C.
Description: The solubility of RebD was assessed by making several different solutions of RebD in water were made and incubated at 30° C. for 72 hours. […] One with skill in the art will recognize that the solubility can be influenced by any number of conditions such as pH, temperature, or different matrices.

[3] = Enzyme kinetics with UDP-glucose as substrate; assay type: biochemical
Description: (§1) A series of experiments were performed to determine kinetic parameters of EUGT11 and 91D2e-b. For both enzymes, 100 μM RebA, 300 μM UDP-glucose, and 10 U/mL Alkaline Phosphatase (Fermentas/Thermo Fisher, Waltham, MA) were used in the reactions. For EUGT11, the reactions were performed at 37° C. using 100 mM Tris-HCl, pH 7, and 2% enzyme. For 91D2e-b, the reactions were performed at 30° C. using 20 mM Hepes-NaOH, pH 7.6, 20% (by volume) enzyme. The initial velocities (V0) were calculated in the linear range of a product versus time plot.
(§2) Vmax and KM parameters were determined from the curve-fit Lineweaver-Burk data, calculated from the x- and y intercepts (x=0, y=1/Vmax) and (y=0, x=−1/KM). Additionally, the same parameters also were calculated by a non-linear least squares regression, using the SOLVER function in Excel. The results obtained with both methods for EUGT11 and RebA are presented in Table 12, along with all the kinetic parameters of this example. Kcat is calculated based on Vmax divided by the approximate amount of protein in the assay.
In order to investigate the influence of UDP-glucose concentration in the glycosylation reaction, as well as the affinity of EUGT11 for UDP-glucose, similar kinetics analysis were performed. EUGT11 was incubated with increasing amounts of UDP-glucose (20 μM, 50 μM, 100 μM, and 200 μM), maintaining an excess of RebA (500 μM).
(§3) In the case of UGT91D2e-b, RebA concentrations assayed were 50 μM, 100 μM, 200 μM, 300 μM, 400 μM and 500 μM. Concentration of UDP-glucose was always three times the concentration of RebA and incubation was performed at 30° C., in the reaction conditions described above for UGT91D2e-b. Additionally, kinetic parameters of UGT91D2e-b towards UDP-glucose were determined. UGT91D2e-b was incubated with increasing amounts of UDP-glucose (30 μM, 50 μM, 100 μM, and 200 μM), maintaining an excess of RebA (1500 μM). incubation was performed at 30° C., in optimal conditions for UGT91D2e-b.

[4] = Denaturation temperature by differential scanning calorimetry (DSC); assay type: physicochemical; details: 6HIS-purified enzymes, 91D2e-b GST-purified
Description: To assess the thermal stability of EUGT11 and to compare it with the other UGTs in the steviol glycosylation pathway, denaturation temperatures of the proteins were determined using differential scanning calorimetry (DSC). Use of DSC thermograms to estimate denaturation temperatures, TD, is described, for example, by E. Freire in Methods in Molecular Biology 1995, Vol. 40 191-218. DSC was performed (using 6HIS-purified EUGT11, yielding an apparent TD of 39° C.; while when GST-purified 91D2e-b was used, the measured TD was 79° C. For reference, the measured TD when using 6HIS-purified UGT74G1, UGT76G1 and UGT85C2 was 86° C. in all cases. One of skill in the art will recognize that enzyme immobilization or addition of thermal protectants can be added to the reactions to improve stability of the protein. Non-limiting examples of thermal protectants include trehalose, glycerol, ammonium sulphate, betaine, trimethylamine oxide, and proteins.

[5] = Enzyme kinetics with RebA as substrate; assay type: biochemical; details: Reb A
Description: as §1
To first investigate the linearity intervals, initial time-courses were done for each enzyme. EUGT11 was assayed at 37° C. for 48 h at initial concentrations of 100 μM RebA and 300 μM UDP-glucose. UGT91D2e-b was assayed at 37° C. for 24 h at initial concentrations of 200 μM RebA and 600 μM UDP-glucose. Based on these range-finding studies, it was determined that the initial 10 minutes in the case of EUGT11, and the initial 20 minutes in UGT91D2e-b would be in the linear range with respect to product formation, and therefore initial velocities of each reaction were calculated in those intervals. In the case of EUGT11, RebA concentrations assayed were 30 μM, 50 μM, 100 μM, 200 μM, 300 μM and 500 μM. Concentration of UDP-glucose was always three times the concentration of RebA and incubation was performed at 37° C. By plotting the calculated V0 as a function of the substrate concentrations, Michaelis-Menten curves were generated. By plotting the reciprocal of V0 and the reciprocal of [S], a Lineweaver-Burk graphic was obtained, with y=339.85x+1.8644; R^2=0.9759.
as §2, §3

[6] = Screening by LC-MS of E. coli lysates, rubusoside as substrate; assay type: biochemical
Description: (§4) To analyze the approximately 1600 mutant clones of UGT91D2e, the E. coli transformants were grown overnight at 30° C. in 1 ml of NZCYM containing ampicillin (100 mg/1) and chloramphenicol (33 mg/1), in 96-well format. The next day, 150 μl of each culture was inoculated into 3 ml NZCYM containing ampicillin (100 mg/1), chloramphenicol (33 mg/1), arabinose 3 mM, IPTG 0.1 mM and ethanol 2% v/v, in 24-well format, and incubated at 20° C. and 200 rpm for ˜20 h. The following day, cells were spun down and pellets were resuspended in 100 μl of lysis buffer containing 10 mM Tris-HCl pH 8, 5 mM MgCl2, 1 mM CaCl2) and complete mini protease inhibitor EDTA-free (3 tablets/100 ml) (Hoffmann-La Roche, Basel, Switzerland) and frozen −80° C. for at least 15 minutes to promote cell lysis. […] In each case, the resulting compounds, stevioside or rebaudioside D (rebD), were measured by LC-MS. Results were analyzed in comparison with the stevioside or rebD produced by the lysates expressing the corresponding controls (91D2e, 91D2e-b, EUGT11 and the empty plasmid). […]
(§5) Half of the 1600 clones and the corresponding controls were assayed for their capacity to glycosylate rubusoside and rebaudiosideA. Stevioside and RebD were quantified by LC-MS. […]

[7] = Screening by LC-MS of E. coli lysates, rebaudioside A as substrate; assay type: biochemical; details: RebA substrate
Description: as §4, §5

[8] = Codon optimized UGT cell lysate assay, steviol as substrate; assay type: biochemical; details: 0.25 mM steviol, 24 hours, 30° C.
Description: The wild-type, DNA 2.0, and GeneArt sequences were assayed for in vitro activity to compare reactivity on substrates in the steviol glycosides pathway. UGTs were inserted in high copy (2p) vectors and expressed from a strong constitutive promoter (GPD1) (vectors P423-GPD, P424-GPD, P425-GPD, and P426-GPD). The plasmids were transformed individually into the universal Watchmaker strain, EFSC301 (described in Example 3 of WO2011/153378) and assays were carried out using cell lysates prepared from equal amount of cells (8 OD units). For the enzymatic reactions, 6 μL of each cell lysate were incubated in a 30 μL reaction with 0.25 mM steviol (final concentration) to test UGT74G1 and UGT85C2 clones, and with 0.25 mM 13-SMG (13SMG) (final concentration) to test 76G1 and 91D2e UGTs. Assays were carried out for 24 hours at 30° C. Prior to LC-MS analysis, one volume of 100% DMSO was added to each reaction, samples were centrifuged at 16000 g, and the supernatants analysed.

For `C=C1C[C@@]23CC[C@@H]4C(C)(C)CCC[C@@]4(C)[C@@H]2CC[C@@H]1C3` [ent-kaurene], the “toxicity to S. cerevisiae when produced as end product” value (“toxicity to S. cerevisiae” for short) [1] was “not be toxic”.

In the case of `C=C1CC[C@@H]2C(C)(C)CCC[C@@]2(C)[C@@H]1CC/C(C)=C/COP(=O)(O)OP(=O)(O)O` [CDP, ent-copalyl diphosphate], the “toxicity to S. cerevisiae” value [1] is reported as “toxic”.

In the case of `C=C1C[C@@]23CC[C@H]4[C@@](C)(CCC[C@@]4(C)C(=O)O[C@@H]4O[C@H](CO)[C@@H](O)[C@H](O)[C@H]4O[C@@H]4O[C@H](CO)[C@@H](O)[C@H](O)[C@H]4O)[C@@H]2CC[C@]1(O[C@@H]1O[C@H](CO)[C@@H](O)[C@H](O[C@@H]2O[C@H](CO)[C@@H](O)[C@H](O)[C@H]2O)[C@H]1O[C@@H]1O[C@H](CO)[C@@H](O)[C@H](O)[C@H]1O)C3` [RebD, Rebaudioside D], the “concentration soluble in water initially” value ([2]; 72 hours) is reported as no more than 1000 µM and the “concentration stable for longer periods of time” value ([2]; water) is reported as no more than 500 µM.

For `CC(C)=CCC/C(C)=C/CC/C(C)=C/CC/C(C)=C/COP(=O)(O)OP(=O)(O)O` [GGPP, geranyl geranyl pyrophosphate], the “toxicity to S. cerevisiae” value [1] was “toxic”.

B1: 91D2e-b: UGT91D2e double mutant C631A/T857C, amino acid modifications L211M and V286A (protein, listed as Stevia rebaudiana)
chain: MATSDSIVDDRKQLHVATFPWLAFGHILPYLQLSKLIAEKGHKVSFLSTTRNIQRLSSHISPLINVVQLTLPRVQELPEDAEATTDVHPEDIPYLKKASDGLQPEVTRFLEQHSPDWIIYDYTHYWLPSIAASLGISRAHFSVTTPWAIAYMGPSADAMINGSDGRTTVEDLTTPPKWFPFPTKVCWRKHDLARLVPYKAPGISDGYRMGMVLKGSDCLLSKCYHEFGTQWLPLLETLHQVPVVPVGLLPPEIPGDEKDETWVSIKKWLDGKQKGSVVYVALGSEALVSQTEVVELALGLELSGLPFVWAYRKPKGPAKSDSVELPDGFVERTRDRGLVWTSWAPQLRILSHESVCGFLTHCGSGSIVEGLMFGHPLIMLPIFGDQPLNARLLEDKQVGIEIPRNEEDGCLTKESVARSLRSVVVEKEGEIYKANARELSKIYNDTKVEKEYVSQFVDYLEKNARAVAIDHES
Molecule B1 has a Kcat ([3]; Lineweaver-Burk plot) of 0.00317 s⁻¹, a Km ([3]; Lineweaver-Burk plot) of 41.9 µM and a Vmax ([3]; Lineweaver-Burk plot) of 0.18 µM/min. The Kcat ([3]; Nonlinear Least Square Fit) was 0.0033 s⁻¹, the Km ([3]; Nonlinear Least Square Fit) was 45.1 µM and the Vmax ([3]; Nonlinear Least Square Fit) was 0.19 µM/min. The “denaturation temperature TD” value [4] was 79 °C, the Kcat ([5]; Lineweaver-Burk plot) was 0.00683 s⁻¹ and the Km ([5]; Lineweaver-Burk plot) was 1580 µM. For the same molecule, the Vmax ([5]; Lineweaver-Burk plot) was 0.44 µM/min, the Kcat ([5]; Nonlinear Least Square Fit) was 0.00533 s⁻¹ and the Km ([5]; Nonlinear Least Square Fit) was 1150 µM. For the same molecule, the Vmax ([5]; Nonlinear Least Square Fit) was 0.34 µM/min, the “stevioside formed by lysates” value [6] was greater than 10 µM and the “RebD formed by lysates” value [7] was greater than 1.5 µM.

B2: UGT74G1: S. rebaudiana UGT, SEQ ID NO:1 (protein, listed as Stevia rebaudiana)
chain: MAEQQKIKKSPHVLLIPFPLQGHINPFIQFGKRLISKGVKTTLVTTIHTLNSTLNHSNTTTTSIEIQAISDGCDEGGFMSAGESYLETFKQVGSKSLADLIKKLQSEGTTIDAIIYDSMTEWVLDVAIEFGIDGGSFFTQACVVNSLYYHVHKGLISLPLGETVSVPGFPVLQRWETPLILQNHEQIQSPWSQMLFGQFANIDQARWVFTNSFYKLEEEVIEWTRKIWNLKVIGPTLPSMYLDKRLDDDKDNGFNLYKANHHECMNWLDDKPKESVVYVAFGSLVKHGPEQVEEITRALIDSDVNFLWVIKHKEEGKLPENLSEVIKTGKGLIVAWCKQLDVLAHESVGCFVTHCGFNSTLEAISLGVPVVAMPQFSDQTTNAKLLDEILGVGVRVKADENGIVRRGNLASCIKMIMEEERGVIIRKNAVKWKDLAKVAVHEGGSSDNDIVEFVSELIKA
In the case of B2, the “denaturation temperature TD” value [4] is reported as 86 °C and the “activity of GeneArt lysate as a percentage of the wild-type enzyme” value [8] is reported as “equivalent activity”.
